± gives the uncertainty stated by the source.

A short description of the series: self-splicing fitness, log relative to wild type (ln ratio); higher = more splicing; Tetrahymena group I intron in knt gene, E. coli kanamycin selection, DiMSum; sequences stand for … in CUCUCU…GGAGGGAAAAGUUAUCAGGCAUGCACCUGGUAGCUAGUCUUUAAACCAAUAGAUUGCAUCGGUUUAAAAGGCAAGACCGUCAAAUUGCGGGAAAGGGGUCAACAGCCGUUCAGUACCAAGUCUCAGGGGAAACUUUGAGAUGGCCUUGCAAAGGGUAUGGUAAUAAGCUGACGGACAUGGUCCUAACCACGCAGCCAAGUCCUAAGUCAACAGAUCUUCUGUUGAUAUGGAUGCAGUUCACAGACUAAAUGUCGGUCGGGGAAGAUGUAUUCUUCUCAUAAGAUAUAGUCGGACCUCUCCUUAAUGGGAGCUAGCGGAUGAAGUGAUGCAACACUGGAGCCGCUGGGAACUAAUUUGUAUGCGAAAGUAUAUUGAUUAGUUUUGGAGUACUCGUGGUCG
An outline of the steps:
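DiMSum derived fitness as the error-weighted combination of fold changes across replicates, kanamycin versus no kanamycin, normalised to wild type. E. coli BL21(DE3) held the library, which randomised all eight P1ex-region intron nucleotides within the knt kanamycin-resistance gene on pET-22b(+). Six replicate transformations grew overnight at 37°C or 30°C on LB agar with or without 25 μg/mL kanamycin, also containing 100 μg/mL carbenicillin, 50 μM IPTG and 0.2% rhamnose, and pooled colonies were amplicon-sequenced on an Illumina HiSeq 2500.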

Consider UGUCAGCAAUAUUACGGCAU, for which the “self-splicing fitness (ln)” value is -3.01 ± 0.15 (30 °C) and -2.48 ± 0.23 (37 °C). The matching figures for UGUCAGCAAUAUUACGGCUG: -2.9 ± 0.18 and -0.843 ± 0.18.

With UGUCAGCAAUAUUACGGGAA, the “self-splicing fitness (ln)” value (30 °C) is -1.71 ± 0.12 and the “self-splicing fitness (ln)” value (37 °C) is -0.986 ± 0.11. In the same order, the values of UGUCAGCAAUAUUACGGGAG are -2.78 ± 0.17 and -1.68 ± 0.14. In the same order, the values of UGUCAGCAAUAUUACGGGUC are -3.4 ± 0.14 and -2.66 ± 0.15. The matching figures for UGUCAGCAAUAUUACGUAAU: -1.03 ± 0.08 and -0.593 ± 0.089. For the sequence UGUCAGCAAUAUUACGUACC, the “self-splicing fitness (ln)” value is -0.242 ± 0.11 (30 °C) and -0.159 ± 0.13 (37 °C).

As to UGUCAGCAAUAUUACGUCGG, the “self-splicing fitness (ln)” value runs as follows: (30 °C) -1.32 ± 0.078; (37 °C) -0.266 ± 0.099. The matching figures for UGUCAGCAAUAUUACGUUAG: -1.07 ± 0.067 and -0.704 ± 0.065.

Consider UGUCAGCAAUAUUACGUUAU, for which the “self-splicing fitness (ln)” value is -3.1 ± 0.12 (30 °C) and -1.77 ± 0.11 (37 °C). In the same order, the values of UGUCAGCAAUAUUACGUUUG are -1.26 ± 0.061 and 0.085 ± 0.095.

For the sequence UGUGAGCAAUAUUACGAAAC, the “self-splicing fitness (ln)” value (37 °C) was -1.59 ± 0.35. Turning to UGUGAGCAAUAUUACGAACC, the “self-splicing fitness (ln)” value was -2.06 ± 0.24 (30 °C) and -0.336 ± 0.27 (37 °C). In the same order, the values of UGUGAGCAAUAUUACGACCU are -0.867 ± 0.17 and 0.0453 ± 0.26.

UGUGAGCAAUAUUACGAGGA: the “self-splicing fitness (ln)” value is -2.55 ± 0.29 (30 °C) and -2.89 ± 0.31 (37 °C). The matching figures for UGUGAGCAAUAUUACGAGGC: -3.2 ± 0.28 and -3.1 ± 0.36. In the same order, the values of UGUGAGCAAUAUUACGAGGG are -3.77 ± 0.3 and -3.54 ± 0.42.

As for UGUGAGCAAUAUUACGCAAA, the “self-splicing fitness (ln)” value was -3.07 ± 0.37 (30 °C) and -1.8 ± 0.25 (37 °C).

For the sequence UGUGAGCAAUAUUACGCAGC, the “self-splicing fitness (ln)” value (37 °C) was -1.77 ± 0.4.

Regarding UGUGAGCAAUAUUACGCGCC, the “self-splicing fitness (ln)” value by setting is: (30 °C) -2.07 ± 0.17; (37 °C) -1.9 ± 0.38. In the same order, the values of UGUGAGCAAUAUUACGCGUU are -2.62 ± 0.2 and -1.89 ± 0.25. On to UGUGAGCAAUAUUACGCUGC, for which, where the note is “30 °C”, the “self-splicing fitness (ln)” value is -1.9 ± 0.25. For the sequence UGUGAGCAAUAUUACGCUUG, the “self-splicing fitness (ln)” value is -3.29 ± 0.31 (30 °C) and -3.13 ± 0.47 (37 °C). For the sequence UGUGAGCAAUAUUACGGAAG, the “self-splicing fitness (ln)” value is -2.97 ± 0.25 (30 °C) and -1.76 ± 0.26 (37 °C). Turning to UGUGAGCAAUAUUACGGGCG, the “self-splicing fitness (ln)” value was -0.245 ± 0.1 (30 °C) and 0.233 ± 0.16 (37 °C).

As to UGUGAGCAAUAUUACGGGGG, the “self-splicing fitness (ln)” value reads like this: (30 °C) -3.23 ± 0.26; (37 °C) -2.35 ± 0.23. In the same order, the values of UGUGAGCAAUAUUACGGGUU are -3.22 ± 0.31 and -1.59 ± 0.28. In the same order, the values of UGUGAGCAAUAUUACGGUAA are -2.56 ± 0.31 and -2.25 ± 0.3. In the same order, the values of UGUGAGCAAUAUUACGGUCU are -3.01 ± 0.17 and -2.19 ± 0.2. On to UGUGAGCAAUAUUACGGUGC, for which the “self-splicing fitness (ln)” value (30 °C) is -3.57 ± 0.25 and the “self-splicing fitness (ln)” value (37 °C) was -1.77 ± 0.21. In the same order, the values of UGUGAGCAAUAUUACGUCGG are -2.11 ± 0.2 and -1.35 ± 0.29.

Regarding UGUGAGCAAUAUUACGUCUU, the “self-splicing fitness (ln)” value is -2.9 ± 0.29 (30 °C) and -2.27 ± 0.3 (37 °C).

UGUGAGCAAUAUUACGUGGU: the “self-splicing fitness (ln)” value (30 °C) was -3.75 ± 0.23 and the “self-splicing fitness (ln)” value (37 °C) was -1.88 ± 0.17. Take UGUGAGCAAUAUUACGUGUC: the “self-splicing fitness (ln)” value (37 °C) is -1.75 ± 0.28. Turning to UGUUAGCAAUAUUACGAAAA, the “self-splicing fitness (ln)” value was -2.39 ± 0.46 (30 °C) and -1.28 ± 0.22 (37 °C). In the same order, the values of UGUUAGCAAUAUUACGACAC are -3.43 ± 0.47 and -2.08 ± 0.43.

Take UGUUAGCAAUAUUACGACAU: the “self-splicing fitness (ln)” value (30 °C) was -2.59 ± 0.021 and the “self-splicing fitness (ln)” value (37 °C) was -1.28 ± 0.035. The matching figures for UGUUAGCAAUAUUACGAGAA: -2.27 ± 0.34 and -1.85 ± 0.38.

As for UGUUAGCAAUAUUACGAGGC, the “self-splicing fitness (ln)” value is, setting by setting: (30 °C) -3.73 ± 0.43; (37 °C) -2.67 ± 0.38. In the same order, the values of UGUUAGCAAUAUUACGAUCA are -0.0398 ± 0.15 and 0.805 ± 0.15.

Consider UGUUAGCAAUAUUACGAUUG, for which the “self-splicing fitness (ln)” value is -0.695 ± 0.084 (30 °C) and -0.795 ± 0.12 (37 °C). In the same order, the values of UGUUAGCAAUAUUACGCACA are -1.21 ± 0.12 and -0.549 ± 0.11. In the same order, the values of UGUUAGCAAUAUUACGCGGA are -0.526 ± 0.082 and -0.401 ± 0.087. As for UGUUAGCAAUAUUACGCGGU, the “self-splicing fitness (ln)” value (30 °C) was -4.19 ± 0.47.

As for UGUUAGCAAUAUUACGCGUA, the “self-splicing fitness (ln)” value reads like this: (30 °C) -0.809 ± 0.12; (37 °C) -0.454 ± 0.13. Consider UGUUAGCAAUAUUACGCGUC, for which the “self-splicing fitness (ln)” value is -3.45 ± 0.33 (30 °C) and -2.79 ± 0.36 (37 °C). In the same order, the values of UGUUAGCAAUAUUACGGAAU are -0.534 ± 0.34 and -1.91 ± 0.38. With UGUUAGCAAUAUUACGGACU, the “self-splicing fitness (ln)” value reads like this: (30 °C) -0.161 ± 0.079; (37 °C) 0.414 ± 0.093.

As to UGUUAGCAAUAUUACGGCAU, the “self-splicing fitness (ln)” value is -3.67 ± 0.32 (30 °C) and -1.95 ± 0.27 (37 °C). The matching figures for UGUUAGCAAUAUUACGGCGC: -2.65 ± 0.21 and -2.22 ± 0.27. The matching figures for UGUUAGCAAUAUUACGGGCA: -0.664 ± 0.16 and 0.194 ± 0.18. The matching figures for UGUUAGCAAUAUUACGGGCC: -1.76 ± 0.18 and -1.6 ± 0.32. For the sequence UGUUAGCAAUAUUACGGUUU, the “self-splicing fitness (ln)” value reads like this: (30 °C) -2.82 ± 0.15; (37 °C) -2.02 ± 0.15. For UGUUAGCAAUAUUACGUAGG, the “self-splicing fitness (ln)” value (30 °C) was -2.19 ± 0.11 and the “self-splicing fitness (ln)” value (37 °C) is -0.461 ± 0.12.

As to UGUUAGCAAUAUUACGUCCG, the “self-splicing fitness (ln)” value is -0.342 ± 0.15 (30 °C) and 0.113 ± 0.22 (37 °C). Take UGUUAGCAAUAUUACGUCUA: the “self-splicing fitness (ln)” value reads like this: (30 °C) -0.124 ± 0.072; (37 °C) -0.175 ± 0.071.

Regarding UGUUAGCAAUAUUACGUCUG, the “self-splicing fitness (ln)” value is -0.698 ± 0.12 (30 °C) and 0.393 ± 0.15 (37 °C). The matching figures for UGUUAGCAAUAUUACGUGAA: -2.38 ± 0.16 and -1.07 ± 0.13.

As for UGUUAGCAAUAUUACGUGCA, the “self-splicing fitness (ln)” value reads like this: (30 °C) -0.172 ± 0.15; (37 °C) 0.0583 ± 0.19. In the same order, the values of UGUUAGCAAUAUUACGUGGA are -1.1 ± 0.22 and -1.62 ± 0.15. Take UUAAAGCAAUAUUACGAAAG: the “self-splicing fitness (ln)” value is -1.66 ± 0.11 (30 °C) and -1.13 ± 0.17 (37 °C). In the same order, the values of UUAAAGCAAUAUUACGAACC are -1.34 ± 0.18 and -0.963 ± 0.23. The matching figures for UUAAAGCAAUAUUACGAAGA: -1.19 ± 0.12 and -0.63 ± 0.17. The matching figures for UUAAAGCAAUAUUACGAUAG: -0.00915 ± 0.088 and -0.00163 ± 0.12.

With UUAAAGCAAUAUUACGCAGA, the “self-splicing fitness (ln)” value by setting is: (30 °C) -0.209 ± 0.11; (37 °C) -0.133 ± 0.13. In the same order, the values of UUAAAGCAAUAUUACGCAGG are -0.165 ± 0.12 and -0.592 ± 0.15. In the same order, the values of UUAAAGCAAUAUUACGCUUG are -0.897 ± 0.096 and 0.0122 ± 0.12. For the sequence UUAAAGCAAUAUUACGGAAC, the “self-splicing fitness (ln)” value reads like this: (30 °C) -1.08 ± 0.23; (37 °C) -1.69 ± 0.37.

As for UUAAAGCAAUAUUACGGCAU, the “self-splicing fitness (ln)” value (30 °C) is -0.866 ± 0.11 and the “self-splicing fitness (ln)” value (37 °C) is 0.331 ± 0.12. As for UUAAAGCAAUAUUACGGCUU, the “self-splicing fitness (ln)” value was -1.44 ± 0.082 (30 °C) and -0.99 ± 0.11 (37 °C). As for UUAAAGCAAUAUUACGGGGU, the “self-splicing fitness (ln)” value (37 °C) was -2.21 ± 0.3. Take UUAAAGCAAUAUUACGUACG: the “self-splicing fitness (ln)” value is, setting by setting: (30 °C) 0.121 ± 0.083; (37 °C) 0.746 ± 0.1. In the case of UUAAAGCAAUAUUACGUCGC, the “self-splicing fitness (ln)” value by setting is: (30 °C) -3.09 ± 0.21; (37 °C) -2.18 ± 0.23. The matching figures for UUAAAGCAAUAUUACGUCUA: 0.0872 ± 0.095 and 0.626 ± 0.11.

For the sequence UUAAAGCAAUAUUACGUCUC, the “self-splicing fitness (ln)” value (30 °C) is -2.76 ± 0.13 and the “self-splicing fitness (ln)” value (37 °C) was -1.4 ± 0.13. In the same order, the values of UUAAAGCAAUAUUACGUGUG are -0.972 ± 0.045 and -0.4 ± 0.06. In the same order, the values of UUAAAGCAAUAUUACGUUGU are -3.19 ± 0.13 and -1.4 ± 0.13.
